# System: T1, 6xHis-PEBP (recombinant mouse PEBP with a 6xHis-tag at the N-terminus)
# T1 sequence: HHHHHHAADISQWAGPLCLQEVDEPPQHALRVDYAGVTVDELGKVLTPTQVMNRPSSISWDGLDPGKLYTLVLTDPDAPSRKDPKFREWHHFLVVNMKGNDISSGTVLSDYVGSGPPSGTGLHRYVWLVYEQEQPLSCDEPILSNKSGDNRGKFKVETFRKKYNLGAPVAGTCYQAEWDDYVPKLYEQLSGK
# pancreatic elastase, sequence (P00772 27-266): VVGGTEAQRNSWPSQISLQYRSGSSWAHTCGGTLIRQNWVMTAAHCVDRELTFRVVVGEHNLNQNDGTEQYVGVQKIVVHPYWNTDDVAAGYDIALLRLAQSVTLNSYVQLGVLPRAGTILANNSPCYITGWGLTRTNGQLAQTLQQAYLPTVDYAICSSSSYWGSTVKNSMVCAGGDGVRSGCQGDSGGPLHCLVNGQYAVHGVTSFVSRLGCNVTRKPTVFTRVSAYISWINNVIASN
# tissue plasminogen activator, sequence (P00750 36-562): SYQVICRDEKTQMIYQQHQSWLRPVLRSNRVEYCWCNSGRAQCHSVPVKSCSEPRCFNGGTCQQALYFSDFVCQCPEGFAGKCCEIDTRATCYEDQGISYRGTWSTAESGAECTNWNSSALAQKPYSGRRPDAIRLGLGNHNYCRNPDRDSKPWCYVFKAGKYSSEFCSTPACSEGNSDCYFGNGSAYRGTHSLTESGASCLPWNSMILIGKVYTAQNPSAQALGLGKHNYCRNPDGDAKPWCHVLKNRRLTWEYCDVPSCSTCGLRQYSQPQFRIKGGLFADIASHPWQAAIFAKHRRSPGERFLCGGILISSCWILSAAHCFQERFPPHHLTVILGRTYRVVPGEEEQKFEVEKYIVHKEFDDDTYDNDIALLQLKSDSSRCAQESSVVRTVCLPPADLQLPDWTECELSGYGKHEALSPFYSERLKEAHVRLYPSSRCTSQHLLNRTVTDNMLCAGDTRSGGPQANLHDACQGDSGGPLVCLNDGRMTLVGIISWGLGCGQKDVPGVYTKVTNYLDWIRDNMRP
# trypsin, sequence (P00760 24-246): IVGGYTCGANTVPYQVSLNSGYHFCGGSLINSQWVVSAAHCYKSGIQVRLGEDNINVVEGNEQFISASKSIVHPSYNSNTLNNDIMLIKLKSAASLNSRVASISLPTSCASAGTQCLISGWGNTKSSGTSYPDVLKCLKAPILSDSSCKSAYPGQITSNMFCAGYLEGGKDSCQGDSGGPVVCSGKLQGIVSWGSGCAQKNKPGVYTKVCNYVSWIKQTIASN
row,Substance,"amidolytic activity (chromogenic substrate, 405 nm)"
1,pancreatic elastase,The amidolytic activities of ... pancreatic elastase (4 pmol) were not affected
2,trypsin,The amidolytic activities of trypsin (0.005 pmol) ... were not affected
3,tissue plasminogen activator,The amidolytic activities of ... tissue plasminogen activator (0.5 pmol) ... were not affected
